{"source": "the nanobody polyreactivity screen of Harvey et al. (2022)", "data": [{"assay": "yeast display, Sf9 membrane polyspecificity reagent, FACS + sequencing; frameworks hold sequencing errors", "how_it_was_run": "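A nanobody's polyreactivity label depends on the gate it was sorted from. Yeast display cells were stained with 10% biotinylated, detergent-solubilized Sf9 membrane reagent for 1 hour at 4 °C, enriched on streptavidin microbeads and sorted by FACS. The low and high (top ~1%) gates were set on anti-HA fluorescence for expression and streptavidin fluorescence for reagent binding.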", "values": [{"sequence": "QFQLVESGGGLVQAGGSLRLSCAASGTFGSYAMGWYRHAPGKERELVASISGTGGDTYYADSVKGRFTISRDNAKNTVYLQMNSLKPEDTAVYYCAARWSRYWYLGSWLYDYWGQGSQVTVSS", "polyreactivity (PSR sort gate)": "high polyreactivity"}, {"sequence": "QVQLVESGGGLVQAGGSLRLSCAASGFTFGDYAMGWYRQAPRKERELVAAISKRGGRTFYADSVKGRFTISRDNAKNTVYLQMNSLKPEDTAVYYCAKAGSFDYDYWGQGTQVTVSS", "polyreactivity (PSR sort gate)": "high polyreactivity"}, {"sequence": "QVQLVESGGGIVQAGGSLRLSCAASGSISAYYAMGWYRQAPGNERELVAAISWNGGRTYYADSVKGRFTISRDNAKNSVYLQMNSLKPEDTAVYYCAASPYYVVSTGGYDYDYWGQGTQVTVSS", "polyreactivity (PSR sort gate)": "high polyreactivity"}, {"sequence": "QVQLVESGGGLVQAGGSLRLSCAASGRIFRGYTMGWYRQAPGKEREFVAAITANGGRTYYADSVKGRFTISRDNAKNTVYLKMNSLKPEDTAVYYCNARTYTYRGSFDYWVQGTQVTVSS", "polyreactivity (PSR sort gate)": "high polyreactivity"}, {"sequence": "QVQLVDSGGGLVQAGGSLRLSCAASGFKFGTYAMGWYRQAPGKERELVAGISRRSGSTIYADSVKGRFTISRDNAKNTVYLQMNSLKPEDTAVYYCNVDRPDATWSWWEYGYWGQGTQVTVSS", "polyreactivity (PSR sort gate)": "high polyreactivity"}, {"sequence": "QVQLVESGGGLVQAGGSLRLSCAASGRILVYYAMGWYRQAPGKEREFVAAISQRGGSTYYADSVKGRFTISRDNAKNTVYLQMNSLKPEDTAVYYCATRPIQYRRGYDYWGQGTQVTVSS", "polyreactivity (PSR sort gate)": "high polyreactivity"}, {"sequence": "QVQLVESGGGLVQAGGSLRLSCAASGRTFGQNAMGWYRQAPGKERELVASIRSGGITDYADSVKGRFTISRDNAKNTVYLQMNSLKPEDTAVYYCNAEGVWWSTRYDSWGQGTQVTVSS", "polyreactivity (PSR sort gate)": "low polyreactivity"}, {"sequence": "QVQLVESGGGLVQAGGSLRLSCAASGIIFGKYAMGGYRQAPGKERELVAAISSSGGRTYYADSGKGRFTISRDNAKNNVYLQMNSLKPEDTAVYYCAAVPGPGYYHYGYWGQGTQVTVSS", "polyreactivity (PSR sort gate)": "high polyreactivity"}, {"sequence": "QVQLVESGGGLVQAGGSLRLSCAASGRTFAYNVMGGYRQAPGKERELVAGISFGAGSTYYADSVKGRFTISRDNAKNTVYLQMNSLNPEDTAVYYCATRRRGTRYQLGYDYWGQGTQVTVSS", "polyreactivity (PSR sort gate)": "high polyreactivity"}, {"sequence": "QVQLVESGGGLVQAGGRLRLSCAASGLIIKLYAMGWYRQAPGKERELVAAITDRGGSTYYADSVKGRFTISRDNAKNTVYLQMNSLKPEDTAVYYCAAPYAGWRDGGDYWGQGTQVTVSS", "polyreactivity (PSR sort gate)": "low polyreactivity"}, {"sequence": "QVQLVESGGCLVQAGGSLRLSCAASGRIIYSNGMGWYRQAPGKERELVAAISSGGSTYYADSVKGRFTISRDNAKNTVYLQMNSLKPEDTAVYYCNKDYLLRHYYIYVIEGDYWGQGTQVTVSS", "polyreactivity (PSR sort gate)": "low polyreactivity"}, {"sequence": "QVQLVDSRGGLVQAGGSLRLSCAASGSTFVNYAMGWYRQAPGKAWELVAAITANGGRTYYADSVKGRFTISRDNAKNTVYLQMNSLKPEDTAVYYCNTESNLYRRRRNYWGQGTQVTVSS", "polyreactivity (PSR sort gate)": "low polyreactivity"}, {"sequence": "QVQLVESGGGLVQAGGSLRLSCAASGLIFVTNAMGGYRQAPGKERELVAAITRSGGSTYYADSVKGRFTISRDNAKNTVYLQMNSLKQEDTAVYYCATGFHYAYGYWGQGTQVTVSS", "polyreactivity (PSR sort gate)": "low polyreactivity"}, {"sequence": "QDQHGDSGGGLVQAGGSLRLSCSASGFTITYNTMGWYRQAPGKERELVATITAGDGSTYYADSVKGRFTISRDNAKNTVYFQMNSLKPEDTAVYYCAADAYYYYAGGHYYWGQGTQVTVSS", "polyreactivity (PSR sort gate)": "low polyreactivity"}, {"sequence": "QVQLVESGGGLVQEGGSLRLSCADSGFTSCDNDMGWYRQAPGKERELVAAISRGGSTNYADSVKGRFTISRDNAKNTFYLQMNSLKPEDSEVYYCATAAVTPVWYDYWGKGTQVTVSS", "polyreactivity (PSR sort gate)": "low polyreactivity"}, {"sequence": "QVQLVESGGGLVQAGGSLRLSCAASGSNFTANAMGWYRQAPGKERELVAAISRSGGRTYYADSVKGRFTISRDNAKNTVYLQMNSLKPEDTAVYYCNVGRFNTSGYDYWGQGTQVTVSS", "polyreactivity (PSR sort gate)": "high polyreactivity"}, {"sequence": "QVQLVESGGGLVQAGGSLRLSCAASGSTFVAYVMGWYRQAPGKERELVASITSGGITNYADSVKGRFTISRDNAKNTVYLQMNSLKPEDTAVKGDYWGQGTQVTVSS", "polyreactivity (PSR sort gate)": "low polyreactivity"}, {"sequence": "QVQLVESGGGLVQAGGSLRLSCAASGSIFWYNAMGWYRQAPGKERELVAGITSGGDTNYADSVKGRFTISRDNAKNTVYLQMNSLKPEDTAVYYCAKRWYGGRRYDYWGQGTQVTVSS", "polyreactivity (PSR sort gate)": "low polyreactivity"}, {"sequence": "QVQLVESGGGIVQAGGSLRLSCAASGFTFGAYAMGWSRQAPGKEGELVASISWSGGSTYYADSVKGRFTISRDHAKNTVNLQMNSLKPEDTAVYYCNKDFVYPDDDGLFDYWGQGTQETVSS", "polyreactivity (PSR sort gate)": "low polyreactivity"}, {"sequence": "QVQLVESGGGLVQARGSLRLSCAASGSIFRSYAMGWYRQAPGKERELVAAITSGGNTYYADSVKGRFTISRDNAKNTVYLQMNSLKPEDTAVYYCAKRRYNYLSDYDYWGQGTQVTVSS", "polyreactivity (PSR sort gate)": "low polyreactivity"}, {"sequence": "QVQLVESGGGLVQAGGSLRLSCAGYGRIFEDNSMVSYRQPPGKERELVAAISSGDSTKYADSVKGRFTISRDNAKTTVYLQIKSLKQEDTAVYYCAAERNHGLVGSESVGRNVYWGHGTQVTVSS", "polyreactivity (PSR sort gate)": "low polyreactivity"}, {"sequence": "QVQLVESGGGLVQAGGSLRLSCAASGRTVWDSAMGWYRQAPGNERELVAAIASNTGSTYYADSVKGRFTISRDNAKNTVYLQLNSLKPEDTAVYYCNVEYYYDFNFNYDDYEFDYWGQGTHVTVSS", "polyreactivity (PSR sort gate)": "high polyreactivity"}, {"sequence": "QVQLVESGGGLVQAGGSLRLSCAASGRISARYVMGWYRQAPGKERELVAAISWSGDRTYYADSVKGRFTISRDNAKNTVYLQMNSLKPEDTAVYYCATGFYSRLAYGYGYWGQGSQVTVSS", "polyreactivity (PSR sort gate)": "high polyreactivity"}, {"sequence": "QVQLVESGGGLVQAGGSLRLSCAASGSIFSYYAMGWYRQAPGKERELVAAISKRGASTYYADSVKGRFTISRDNAKNTVYLQMNSLKPEDTAVYYCAARPYGGGRRSIYYYWGQGTQVTVSS", "polyreactivity (PSR sort gate)": "high polyreactivity"}, {"sequence": "QVQLVEPGGGIVQAGGSLRLSCAASGYIFYNYAMGWYRQAPGKERELVAAITSGGSTYYADSVKGRFTISRDNAKNTVYFQMNSLKPEDTAVYYCAAYLFPAYSRISNDYWGQGTQVTVSS", "polyreactivity (PSR sort gate)": "high polyreactivity"}, {"sequence": "QVQLVESGGGLVQAGGSLRLSCAASGSIFVTNAMGWYRQAPGKERELVAAINQGGGSTYYADSVKGRFTISRDNAKNTVYLQMNSLKPEDTAVYYCATDAPYFVPFSTNGEFGDEYWGQGTQVTVSS", "polyreactivity (PSR sort gate)": "low polyreactivity"}, {"sequence": "QVHLVESGGGLVQAGGSLRLSCAASGSTFGLKAMGWYRQAPGKEREFVASINFNDGSTYYADSVKGRFTISRDNAKNTVYLQMNSLKPEDPAVYYCAVELWWKWPFYYWGQGTQVTVSS", "polyreactivity (PSR sort gate)": "high polyreactivity"}, {"sequence": "QVQLVESGGGLVHAGGSLRLSCAASGSIFTIYAMGWYRQAPGKERELVAAISDRGTRTYYADSVKGRFTISRDNAKNTVYLQMNSLKPEDTAVYYCATDALYTYGYDYWGQGTQVTVSS", "polyreactivity (PSR sort gate)": "low polyreactivity"}, {"sequence": "QVQLVESGGGLVQAGGSLRLSCAASGRIFVPYAMGWYRQAPGKERELVAAITWRGGSTYYADSVKGRFTISRDNAKNTVYLQMNSLKPEDTAVYYCNADEASPWFWFSHLQVGMDYWGQGTQVTVSS", "polyreactivity (PSR sort gate)": "low polyreactivity"}, {"sequence": "QVQLVESGVGLVQAGGSLRLSCAASGITFYSYAMGWYRQAPGKERELVAAITLTGGTTYYADSVKGRFTISRDNAKNTVYLQMKSLKPEDTAVYYCAAQYWWWSLFEYDSWGQGTQVTVSS", "polyreactivity (PSR sort gate)": "low polyreactivity"}, {"sequence": "QVQLVESGGGLVQAGGSLRLSCAASGFTFARNAMGWYRQAPGKERELVASITSGGSTNYADSVKGRFTISRDNAKNTVYLQMNSVKPEDSAVYYCNALWWAPGRPGEEIYRILDYWGQGTQVTVSS", "polyreactivity (PSR sort gate)": "low polyreactivity"}]}]}
